Assay results published in patent US8114968 (DYAX, dated 2012).

Tests used:
Test in all cases: cell-based or functional assay
human MMP-12 [1] = target: T1, human MMP-12 (human, UniProt P39900 106-470, limits assumed)
human MMP-12 [2] = target: T1, human MMP-12; remark: listed apart in the source
murine MMP-12 = murine MMP-12 (mouse, UniProt P34960 110-473, limits assumed)
Chain of murine MMP-12 (P34960 110-473 limits assumed): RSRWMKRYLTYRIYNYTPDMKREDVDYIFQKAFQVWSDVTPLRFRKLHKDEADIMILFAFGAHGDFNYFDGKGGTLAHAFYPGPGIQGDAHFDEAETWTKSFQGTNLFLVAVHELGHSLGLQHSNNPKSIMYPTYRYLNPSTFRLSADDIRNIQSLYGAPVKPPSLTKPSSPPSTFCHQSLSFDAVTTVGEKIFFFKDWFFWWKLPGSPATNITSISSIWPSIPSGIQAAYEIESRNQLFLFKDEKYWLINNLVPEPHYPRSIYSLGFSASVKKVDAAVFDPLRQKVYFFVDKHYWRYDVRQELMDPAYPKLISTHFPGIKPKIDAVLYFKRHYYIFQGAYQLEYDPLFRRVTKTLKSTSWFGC

T1 sequence (P39900 106-470 limits assumed): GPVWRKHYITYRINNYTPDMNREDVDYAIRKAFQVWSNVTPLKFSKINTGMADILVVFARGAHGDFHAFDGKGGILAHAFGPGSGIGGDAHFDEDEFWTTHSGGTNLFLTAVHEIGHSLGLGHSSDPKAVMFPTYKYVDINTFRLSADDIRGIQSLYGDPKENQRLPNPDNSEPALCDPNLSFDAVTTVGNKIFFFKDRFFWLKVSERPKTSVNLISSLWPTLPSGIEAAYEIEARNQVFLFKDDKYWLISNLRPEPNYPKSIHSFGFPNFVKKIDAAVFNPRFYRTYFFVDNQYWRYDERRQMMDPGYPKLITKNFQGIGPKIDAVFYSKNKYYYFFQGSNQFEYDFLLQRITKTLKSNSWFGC

Binder	IC50 (nM), large scale purified Fabs (human MMP-12 [1]) [nM]	IC50 (nM), IgGs (human MMP-12 [1]) [nM]	further results
539A-M0016-A11 Fab (Fab, V domains shown) VH: EVQLLESGGGLVQPGGSLRLSCAASGFTFSEYQMAWVRQAPGKGLEWVSSIYPSGGHTHYADSVKGRFTISRDNSKNTLYLQMNSLRAEDTAVYYCAKESYYDFWSGYYFDYWGQGTLVTVSS VL: DIQMTQSPSSLSASVRDRVTITCRTSQNINTYLNWYYQAPGRAPKLLIFGVSSLHRGVSSRFSGSGDGTEFTLTISSLQPEDIGTYFCQQSYSSPWTFGQGTKVEIK	8.8	–	–
539A-M0013-G12 Fab (Fab, V domains shown) VH: EVQLLESGGGLVQPGGSLRLSCAASGFTFSWYHMFWVRQAPGKGLEWVSGISSSGGYTHYADSVKGRFTISRDNSKNTLYLQMNSLRAEDTAVYYCATREGMLYDYVWGENYMDVWGKGTTVTVSS VL: DIQMTQSPSSLSASVGDRVTITCQASQDTYNRLHWYQQKPGKAPKLLIYDAVNLNRGVPSRFRGSGSGTNYILIITNLQPEDTATYYCQHSDDLSLAFGGGTKVEIK	6.7	–	–
539A-M0016-H05 Fab (Fab, V domains shown) VH: EVQLLESGGGLVQPGGSLRLSCAASGFTFSWYAMSWVRQAPGKGLEWVSRIVPSGGDTGYADSVKGRFTISRDNSKNTLYLQMNSLRAEDTAVYYCATFRGIMYGDYGSSYWYFDLWGRGTLVTVSS VL: DIQMTQSPATLSLSPGERATLSCRASQSVSSYLAWYQQKPGQAPRLLIYDASNRATGIPARFSGSGSGTDFTLTISSLEPEDFAVYYCQQRSNWPLTFGGGTKVEIK	56.6	–	–
539A-M0013-D11 Fab (Fab, V domains shown) VH: EVQLLESGGGLVQPGGSLRLSCAASGFTFSSYPMWWVRQAPGKGLEWVSGIVPSGGVTIYADSVKGRFTISRDNSKNTLYLQMNSLRAEDTAVYYCARVGWLASSDYYYYMDVWGKGTTVTVSS VL: DIQMTQSPSSLSASVGDRITISCQASQDIDNYLNWYQQRSGKAPKLLIYDAYNLKAGVPSRFRGSRSGTDFFLTISSLQPEDFATYYCQQSYRAPLTFGGGTKVEIK	20.3	–	–
539A-M0014-G11 Fab (Fab, V domains shown) VH: EVQLLESGGGLVQPGGSLRLSCAASGFTFSWYVMVWVRQAPGKGLEWVSSIYSSGGPTKYADSVKGRFTISRDNSKNTLYLQMNSLRAEDTAVYYCAKEGGVYGGPELYYYYYGMDVWGQGTTVTVSS VL: QYELTQPPSASGTPGQRITISCSGSSSNLGSNPVQWYQQLPGSAPKLLIHTNTHRPSGVPDRFSGSKSVTSASLAISGLQSEDEAEYYCATWDDSLNGGVFGGGTKLTVL	35	–	–
539A-M0014-G11 IgG (antibody, V domains shown) VH: EVQLLESGGGLVQPGGSLRLSCAASGFTFSWYVMVWVRQAPGKGLEWVSSIYSSGGPTKYADSVKGRFTISRDNSKNTLYLQMNSLRAEDTAVYYCAKEGGVYGGPELYYYYYGMDVWGQGTTVTVSS VL: QYELTQPPSASGTPGQRITISCSGSSSNLGSNPVQWYQQLPGSAPKLLIHTNTHRPSGVPDRFSGSKSVTSASLAISGLQSEDEAEYYCATWDDSLNGGVFGGGTKLTVL	–	12.3	–
539B-M0065-E12 (Fab, V domains shown) VH: EVQLLESGGGLVQPGGSLRLSCAASGFTFSWYNMHWVRQAPGKGLEWVSGISPSGGNTMYADSVKGRFTISRDNSKNTLYLQMNSLRAEDTAVYYCAKDIRGAYSSGLFDYWGRGTLVTVSS VL: DIQMTQSPSSLSASVGDRVTITCRANQSIYTYLNWYQQKPGKAPELLIYAASSLQSGVPSRFSGSGSGTDFTLTISSLQPEDFATYYCQQAGIFGQGTKLEIK	–	–	IC50hu (human MMP-12 [2]): 1.4 nM; IC50 m (murine MMP-12): < 10 nM (not printed; inferred)
539B-M0065-G03 (Fab, V domains shown) VH: EVQLLESGGGLVQPGGSLRLSCAASGFTFSWYGMGWVRQAPGKGLEWVSVIVSSGGFTQYADSVKGRFTISRDNSKNTLYLQMNSLRAEDTAVYYCAKDIRGAYSSGLFDYWGRGTLVTVSS VL: DIQMTQSPSSLSASVGDRVTITCRANQSIYTYLNWYQQKPGKAPELLIYAASSLQSGVPSRFSGSGSGTDFTLTISSLQPEDFATYYCQQAGIFGQGTKLEIK	–	–	IC50hu (human MMP-12 [2]): 3 nM; IC50 m (murine MMP-12): < 10 nM (not printed; inferred)
539B-M0069-D10 (Fab, V domains shown) VH: EVQLLESGGGLVQPGGSLRLSCAASGFTFSLYHMHWVRQAPGKGLEWVSGIGPSGGWTIYADSVKGRFTISRDNSKNTLYLQMNSLRAEDTAVYYCAKDIRGAYSSGLFDYWGRGTLVTVSS VL: DIQMTQSPSSLSASVGDRVTITCRANQSIYTYLNWYQQKPGKAPELLIYAASSLQSGVPSRFSGSGSGTDFTLTISSLQPEDFATYYCQQAGIFGQGTKLEIK	–	–	IC50hu (human MMP-12 [2]): 2.3 nM; IC50 m (murine MMP-12): < 10 nM (not printed; inferred)
539A-M0014-C09 IgG (antibody, V domains shown) VH: EVQLLESGGGLVQPGGSLRLSCAASGFTFSDYSMHWVRQAPGKGLEWVSGIGPSGGPTFYADSVKGRFTISRDNSKNTLYLQMNSLRAEDTAVYYCARGEYSSSDYYYYYGMDVWGQGTTVTVSS VL: DIQMTQSPATLSLSPGERATLSCGASQNIDGYYLAWYQQKPGQAPSLLIYDASSRSTGVPDRFSGSGSGTDFTLTISRLEPEDFAVYYCQHYGNSLWTFGQGTKVEIK	–	43.3	–
539A-M0014-C09 Fab (Fab, V domains shown) VH: EVQLLESGGGLVQPGGSLRLSCAASGFTFSDYSMHWVRQAPGKGLEWVSGIGPSGGPTFYADSVKGRFTISRDNSKNTLYLQMNSLRAEDTAVYYCARGEYSSSDYYYYYGMDVWGQGTTVTVSS VL: DIQMTQSPATLSLSPGERATLSCGASQNIDGYYLAWYQQKPGQAPSLLIYDASSRSTGVPDRFSGSGSGTDFTLTISRLEPEDFAVYYCQHYGNSLWTFGQGTKVEIK	36.9	–	–
539A-M0013-H06 Fab (Fab, V domains shown) VH: EVQLLESGGGLVQPGGSLRLSCAASGFTFSAYEMDWVRQAPGKGLEWVSGISSSGGPTYYADSVKGRFTISRDNSKNTLYLQMNSLRAEDTAVYYCARVGGWELLQDYYYYMDVWGKGTTVTVSS VL: DIQMTQSPATLSLSPGERATLSCRASHSVDNLAWYQQQPGQAPRLLIYDVSYRATGIPARFSGSGSGTDFTLTISSLEPEDFAVYYCQQRNNWPLSLTFGGGTKVEIK	11.9	–	–

Continued, in another order:

IC50 (nM), large scale purified Fabs (human MMP-12 [1]) [nM]	IC50 (nM), IgGs (human MMP-12 [1]) [nM]	Binder	further results
–	32.9	539A-M0016-H05 IgG (antibody, V domains shown) VH: EVQLLESGGGLVQPGGSLRLSCAASGFTFSWYAMSWVRQAPGKGLEWVSRIVPSGGDTGYADSVKGRFTISRDNSKNTLYLQMNSLRAEDTAVYYCATFRGIMYGDYGSSYWYFDLWGRGTLVTVSS VL: DIQMTQSPATLSLSPGERATLSCRASQSVSSYLAWYQQKPGQAPRLLIYDASNRATGIPARFSGSGSGTDFTLTISSLEPEDFAVYYCQQRSNWPLTFGGGTKVEIK	–
24.2	–	539A-M0022-C07 Fab (Fab, V domains shown) VH: EVQLLESGGGLVQPGGSLRLSCAASGFTFSIYQMWWVRQAPGKGLEWVSSISSSGFTWYADSVKGRFTISRDNSKNTLYLQMNSLRAEDTAVYYCTTEDIGYYYGMDVWGQGTTVTVSS VL: DIQMTQSPATLSVSPGERATLSCRASQNVRNYLAWYQQKPGQAPRLLIYDASKRATGIPARFSGSGSGTDFTLTISGLEPEDFAVYYCQQRSNWPTFGPGTKVDIK	–
–	13.2	539A-M0022-C07 IgG (antibody, V domains shown) VH: EVQLLESGGGLVQPGGSLRLSCAASGFTFSIYQMWWVRQAPGKGLEWVSSISSSGFTWYADSVKGRFTISRDNSKNTLYLQMNSLRAEDTAVYYCTTEDIGYYYGMDVWGQGTTVTVSS VL: DIQMTQSPATLSVSPGERATLSCRASQNVRNYLAWYQQKPGQAPRLLIYDASKRATGIPARFSGSGSGTDFTLTISGLEPEDFAVYYCQQRSNWPTFGPGTKVDIK	–
74.8	–	539A-M0020-B01 Fab (Fab, V domains shown) VH: EVQLLESGGGLVQPGGSLRLSCAASGFTFSHYVMHWVRQAPGKGLEWVSYIGSSGGETRYADSVKGRFTISRDNSKNTLYLQMNSLRAEDTAVYYCARADYGDYDYYYYYGMDVWGQGTTVTVSS VL: QYELTQPPSVSVAPGQTATITCEGNNIASKSVHWYQQKPGQAPVLVVYDDRDRPSGISERISGSNSGNTPTLTIFRVEAGDEADYYCQVSDSATDHRVFGGGTKLTVL	–
23.9	–	539A-M0027-E11 Fab (Fab, V domains shown) VH: EVQLLESGGGLVQPGGSLRLSCAASGFTFSHYEMEWVRQAPGKGLEWVSSISSSGGPTMYADSVKGRFTISRDNSKNTLYLQMNSLRAEDTAVYYCARGMYGDYDFYYYYGMDVWGQGTTVTVSS VL: DIQMTQSPDTLSLSPGERGTLSCRASQSLSSSYLAWYQQKPGQAPRLLIYDASSRATGIPDRFSGSGSGTDFTLTIGRLEPEDSAVYYCQQYGSFPLTFGGGTKVEIK	–
–	34.6	539A-M0020-B01 IgG (antibody, V domains shown) VH: EVQLLESGGGLVQPGGSLRLSCAASGFTFSHYVMHWVRQAPGKGLEWVSYIGSSGGETRYADSVKGRFTISRDNSKNTLYLQMNSLRAEDTAVYYCARADYGDYDYYYYYGMDVWGQGTTVTVSS VL: QYELTQPPSVSVAPGQTATITCEGNNIASKSVHWYQQKPGQAPVLVVYDDRDRPSGISERISGSNSGNTPTLTIFRVEAGDEADYYCQVSDSATDHRVFGGGTKLTVL	–
–	23.7	539A-M0027-E11 IgG (antibody, V domains shown) VH: EVQLLESGGGLVQPGGSLRLSCAASGFTFSHYEMEWVRQAPGKGLEWVSSISSSGGPTMYADSVKGRFTISRDNSKNTLYLQMNSLRAEDTAVYYCARGMYGDYDFYYYYGMDVWGQGTTVTVSS VL: DIQMTQSPDTLSLSPGERGTLSCRASQSLSSSYLAWYQQKPGQAPRLLIYDASSRATGIPDRFSGSGSGTDFTLTIGRLEPEDSAVYYCQQYGSFPLTFGGGTKVEIK	–
93	–	539A-M0019-C05 Fab (Fab, V domains shown) VH: EVQLLESGGGLVQPGGSLRLSCAASGFTFSWYAMVWVRQAPGKGLEWVSYIGSSGGVTGYADSVKGRFTISRDNSKNTLYLQMNSLRAEDTAVYYCARQKRVDYYDSSGYPTNAEFDYWGQGTLVTVSS VL: QYELTQPRSVSGSPGQSVTISCTGSSSDVAGFYYVSWYQQHPGKAPKLMIRDVNDRPSGVSNRFSGSKSGNTASLTIAGLQTEDEAVYYCSSTSRSDTRVIFGGGTKLTV	–
–	24.5	539A-M0019-C05 IgG (antibody, V domains shown) VH: EVQLLESGGGLVQPGGSLRLSCAASGFTFSWYAMVWVRQAPGKGLEWVSYIGSSGGVTGYADSVKGRFTISRDNSKNTLYLQMNSLRAEDTAVYYCARQKRVDYYDSSGYPTNAEFDYWGQGTLVTVSS VL: QYELTQPRSVSGSPGQSVTISCTGSSSDVAGFYYVSWYQQHPGKAPKLMIRDVNDRPSGVSNRFSGSKSGNTASLTIAGLQTEDEAVYYCSSTSRSDTRVIFGGGTKLTV	–
